Residue numbers refer to the chain shown, from its start.

Experimental findings from US20240018237A1 (SICHUAN KELUN BIOTECH BIOPHARMACEUTICAL, published 2024) are described below.

Experiment [1] addresses T1, human ROR1 (full-length, on the cell surface) (human, UniProt Q01973 30-937).
T1 construct: whole, on cells; the tumour cell lines carry their own ROR1; also called Ba/F3-ROR1 cells; Jeko-1
Description: flow cytometry, HT-29 cells. The method, then:
(§1) The affinities of the purified anti-human ROR1 chimeric antibodies binding to the Ba/F3-ROR1, Jeko-1, HT-29 and A549 cells were analyzed by flow cytometry. The specific experimental steps were as follows: the Ba/F3-ROR1, Jeko-1, HT-29 and A549 cells were incubated with the purified chimeric antibodies of different concentration gradients on ice for 30 minutes, and the anti-ROR1 antibody UC961 with human IgG1 and the anti-TNP antibody were used as positive and negative controls respectively.
(In general: In flow cytometry, cells or beads pass a laser one at a time.)

Experiment [2] has as its target T1, human ROR1 (full-length, on the cell …). Description: flow cytometry, Ba/F3-ROR1 cells. The method, then:
as §1

Experiment [3] has as its target T2, human ROR1 ECD protein (human, UniProt Q01973 30-406).
T2 construct: range 30-406; Expressed in Expi293 or ExpiCHO cells; also called Recombinant human ROR ECD
The experiment is described as follows: BLI (Octet), antibody on AHC sensor, ROR1 ECD in solution. On the technique in general: In BLI a coated tip is dipped into the sample, and binding shifts an interference pattern.

Experiment [4] has as its target T1, human ROR1 (full-length, on the cell …). The experiment is described as follows: flow cytometry, Jeko-1 cells. The method, then:
as §1

Experiment [5] deals with T2, human ROR1 ECD protein. The experiment is described as follows: BLI (Octet), antibody on AHC sensor, ROR1 ECD in solution, 1:1 model. The text has this:
Octet ForteBio is widely used in the detection of antibody-antigen dynamic affinity. This method was used to determine the dynamic affinities of the candidate chimeric antibodies 3D8-Chi, 19F6-Chi and 38F8-Chi and the positive control antibody UC961 to human ROR1.

The target of experiment [6] is T1, human ROR1 (full-length, on the cell …). Description: flow cytometry, A549 cells. The method, then: as §1
Experiment [7] shares this target. Description: flow cytometry on HT29 cells, MFI against antibody concentration. From the text: (§2) The affinity of the candidate antibodies to ROR1 on the surface of human cells was detected by flow cytometry. In addition to the Ba/F3-ROR1 overexpression cells, human mantle cell lymphoma cell line Jeko-1 (ATCC, Cat. No.: CRL-3006), human colon cancer cell line HT-29 (ATCC, Cat. No.: HTB-38), human lung cancer cell line A549 (ATCC, Cat. No.: CCL-185) were also used for the binding assay. The anti-human ROR1 antibody UC961 (for sequence, see WO2018237335A1) with mouse or human IgG1 Fc was used as a positive control, and the anti-2,4,6-trinitrophenol antibody (ATCC) with the corresponding mouse or human IgG1 Fc was used as a negative control. Mouse IgG isotype control (Thermo Fisher, Cat. No.: 31903) was also used as a negative control.

For experiment [8] the target is unchanged. Description: cell-based or functional assay.
The target is the same in experiment [9]. Description: flow cytometry on Jeko-1 cells, MFI against antibody concentration.
Source text: as §2

Experiment [10] deals with T3, human ROR2 extracellular domain (ECD) protein (human, UniProt Q01974 34-403).
T3 construct: extracellular domain; Bought protein; also called human ROR2 ECD protein; Sino Biologicals 16133-H08H
T3 sequence (Q01974 34-403): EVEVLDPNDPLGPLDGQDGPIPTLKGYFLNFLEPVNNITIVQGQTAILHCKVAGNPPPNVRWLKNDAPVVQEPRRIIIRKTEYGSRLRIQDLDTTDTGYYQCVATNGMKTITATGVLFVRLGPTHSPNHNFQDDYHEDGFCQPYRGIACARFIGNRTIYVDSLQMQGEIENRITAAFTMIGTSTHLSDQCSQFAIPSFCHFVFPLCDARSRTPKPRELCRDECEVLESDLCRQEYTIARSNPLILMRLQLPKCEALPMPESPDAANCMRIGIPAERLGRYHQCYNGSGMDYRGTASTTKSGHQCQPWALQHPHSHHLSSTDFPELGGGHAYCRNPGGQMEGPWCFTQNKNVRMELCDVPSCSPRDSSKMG
The experiment is described as follows: ELISA on coated human ROR2 ECD protein (1 ug/mL), OD at 450 nm. As to the method:
It was confirmed by ELISA using extracellular domain (ECD) protein of human ROR2 that the binding specificity of the candidate antibodies to human ROR1 was higher than that of human ROR2. The specific method was as follows: 1 μg/mL human ROR2 extracellular domain (ECD) protein (Sino Biologicals, Cat. No.: 16133-H08H) was added in a 96-well ELISA plate (Thermo Fisher, Cat. No.: 5129) at 100 μL/well, for coating overnight at 4° C. 200 μL of washing buffer (1×TBS containing 0.05% Tween-20) was used to wash 3 times, different concentrations of eight purified mouse-anti-human ROR1 candidate antibodies and UC961 were added at 100 μL, incubated at 37° C. for 1 hour, and mouse-anti-human ROR2 antibody (R&D systems, Cat. No.: MAB2064) was used as a positive control. Washing was performed 3 times with 200 μL of washing buffer, 100 μL of anti-human IgG (Rockland Inc, Cat. No. 609-1304) or anti-mouse IgG secondary antibody (Rockland Inc, Cat. No. 610-1304) diluted at a ratio of 1:10000 were added to each well, incubated at 37° C. for 1 hour. Washing was performed 3 times with 200 μL of washing buffer, 100 μL of TMB (Thermo Fisher, Cat. No.: TMBW-1000-01) was added for color development in the dark for 10 minutes, then 100 μL of stop solution (Thermo Fisher, Cat. No.: 13361-100-10) was added to stop the color development, and reading was carried out by microplate reader at 450 nm.
Background: An ELISA detects its analyte on a solid surface through an enzyme-linked reagent.

The target in experiment [11] is T1, human ROR1 (full-length, on the cell …). The experiment is described as follows: flow cytometry on A549 cells, MFI against antibody concentration.
Source text: as §2

The target is the same in experiment [12]. Description: flow cytometry on Ba/F3-ROR1 cells, MFI against antibody concentration.
Source text: as §2

T1 sequence (Q01973 30-937): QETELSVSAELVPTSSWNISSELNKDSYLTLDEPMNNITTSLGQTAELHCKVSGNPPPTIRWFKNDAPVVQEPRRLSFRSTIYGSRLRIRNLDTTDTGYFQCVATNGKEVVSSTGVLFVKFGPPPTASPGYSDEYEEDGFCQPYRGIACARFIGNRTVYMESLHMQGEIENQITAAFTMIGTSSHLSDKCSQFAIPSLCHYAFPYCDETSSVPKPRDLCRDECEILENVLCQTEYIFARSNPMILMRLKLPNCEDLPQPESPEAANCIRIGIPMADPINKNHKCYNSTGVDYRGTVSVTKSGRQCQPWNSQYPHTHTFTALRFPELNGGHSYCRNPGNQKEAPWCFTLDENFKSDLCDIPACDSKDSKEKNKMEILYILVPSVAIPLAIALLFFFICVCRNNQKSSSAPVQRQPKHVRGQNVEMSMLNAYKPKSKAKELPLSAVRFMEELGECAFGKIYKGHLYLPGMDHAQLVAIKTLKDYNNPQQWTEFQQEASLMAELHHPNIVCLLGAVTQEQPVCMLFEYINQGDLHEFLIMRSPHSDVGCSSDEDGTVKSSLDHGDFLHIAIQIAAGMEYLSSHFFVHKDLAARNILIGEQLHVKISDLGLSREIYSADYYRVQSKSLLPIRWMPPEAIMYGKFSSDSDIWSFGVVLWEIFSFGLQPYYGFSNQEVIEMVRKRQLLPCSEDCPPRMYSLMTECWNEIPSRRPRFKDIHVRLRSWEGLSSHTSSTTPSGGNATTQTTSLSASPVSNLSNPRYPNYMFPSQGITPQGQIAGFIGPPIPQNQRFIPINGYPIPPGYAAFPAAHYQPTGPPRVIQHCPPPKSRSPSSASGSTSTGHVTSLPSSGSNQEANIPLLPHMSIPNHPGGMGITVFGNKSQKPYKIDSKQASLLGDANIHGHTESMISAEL
T2 sequence (Q01973 30-406): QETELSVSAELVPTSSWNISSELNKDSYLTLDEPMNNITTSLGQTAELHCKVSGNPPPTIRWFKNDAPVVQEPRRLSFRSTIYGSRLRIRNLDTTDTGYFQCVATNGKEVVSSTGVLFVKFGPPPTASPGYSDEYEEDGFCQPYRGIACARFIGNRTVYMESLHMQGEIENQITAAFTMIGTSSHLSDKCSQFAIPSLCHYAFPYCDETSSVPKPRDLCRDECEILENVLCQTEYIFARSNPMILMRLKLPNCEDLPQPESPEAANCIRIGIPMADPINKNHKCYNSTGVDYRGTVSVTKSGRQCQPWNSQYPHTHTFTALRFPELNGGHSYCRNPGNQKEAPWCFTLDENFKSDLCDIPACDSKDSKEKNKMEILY

B1: 38F8-Chi (antibody, human IgG1, kappa, V domains shown)
VH: EVKLVESGGDLVKPGGSLKLSCTASGFTFSNYAMSWVRQTPEKRLEWVASISSGGPTYYPDSVKGRFTVSRDNARNILYLQMSSLRSEDTAMYYCARGYRYDVNWYFDVWGAGTSVTVSS
VL: DIKMTQSPSSMYASLGERVTITCKASQDINSYLTWFQQKPGKSPKTLIHRANRLVDGVPSRFSGSGSGQDYSLTISSLEYEDMGIYYCLQYDEFPYTFGGGTKLEIKR
notes: Variable regions of 38F8.1.1 on human IgG1 / kappa constant regions; also called anti-human ROR1 chimeric antibody 38F8-Chi
For the molecule B1, the EC50 in experiment [1] is 0.22 nM; in experiment [2], 0.416 nM; in experiment [4], 0.563 nM; in [6], 0.091 nM. The “fold stronger affinity than UC961 (by KD)” value in the experiment with human ROR1 ECD protein [3] stood at 5 fold. Also, binding in the experiment with human ROR1 ECD protein [5] was put at a Kd of 3.17 nM. The molecule also displayed a koff with human ROR1 ECD protein [5] of 0.00299 s⁻¹. This molecule came in with a kon in the experiment with human ROR1 ECD protein [5] of 942000 M⁻¹ s⁻¹.

B2: Murine antibody 19F6.2.3 (antibody, V domains shown)
VH: DVQLQESGPGLVKPSQSLSLTCTVTGYSITSDYAWNWIRQFPGNKLEWMGYISYSGSIRYNPSLKSRISITRDTSKNQFFLQLNSVTTEDTATYYCARGEITYYFDYWGQGTTLTVSS
VL: DIKMTQSPASLSMAIGEKVTIRCITTTDIDDDMNWYQQKPGEPPKLLISEGNTLRPGVPSRFSSSGYGTDFVFTIENMVSEDVADYYCLQSNDLPLTFGAGTKLELK
notes: Hybridoma antibody
On to B2, for which the entries for the “EC50 (read off the curve)” value in [7], in experiment [9] and in experiment [11] were about 0.02 µg/mL, about 0.008 µg/mL and about 0.01 µg/mL, respectively. Besides, the “activity of inducing internalization on Jeko-1 cells (Mab-ZAP, by IC50), fold over UC961” value (“activity … fold over UC961” below) in experiment [8] came out at 23.4 fold. Further, in experiment [10], the binding result was “no binding (tested: about 5000 ng/ml)”.

B3: Murine antibody 3D8.2.3 (antibody, V domains shown)
VH: EVKLVESGGGLVKPGGSLKLSCAASGFTFSSYAMSWVRQTPEKRLEWVASINSGGSTYYPDSVKGRFTISRDNARNILYLQMSSLRSEDTAMYYCARVNYYGYGDYAMDYWGQGTSVTVSS
VL: DIKMTQSPSSMYASLGERVTITCKASQDINSYLSWFQQKPGKSPKTLIYRANRLVDGVPSRFSGSGSGQDYSLTISSLEYEDMGIYYCLQYDEFPYTFGGGTNLEIK
notes: Hybridoma antibody
Consider B3, for which the “EC50 (read off the curve)” value in experiment [12] is about 0.06 µg/mL; in experiment [9], about 0.02 µg/mL; in experiment [11] it was about 0.03 µg/mL. The “activity … fold over UC961” value in experiment [8] is 3.8 fold. Also, the binding result in [10] is “no binding (tested: about 5000 ng/ml)”.

B4: Murine antibody 38F8.1.1 (antibody, V domains shown)
VH: B1 VH
VL: B3 VL with S34T, Y49H, N103K
notes: Hybridoma antibody
Take B4: the results for the “EC50 (read off the curve)” value in [12], in [7] and in experiment [9] were about 0.06 µg/mL, about 0.04 µg/mL and about 0.03 µg/mL, respectively. Also, the “activity … fold over UC961” value in experiment [8] amounted to 5.3 fold. For the same molecule, the binding result in experiment [10] is reported as “no binding (tested: about 5000 ng/ml)”.

As usually defined, the EC50 is the concentration needed to bring the measured effect to its halfway point. The low end stands for greater potency, the high end for weaker potency. Usually Kd stands for the constant that tells how readily two partners part at equilibrium. Higher therefore signals a looser complex. The koff is a measure of how fast the partners let go of each other. Lower therefore signals slow dissociation. The kon is the rate constant with which the complex forms. Lower therefore signals slow association. One may read the EC50 (read off the curve) as the concentration at which the effect is half-maximal. A higher EC50 (read off the curve) goes with a need for much substance.
